Experimental data as given in patent US4844895A, “Composition containing a peptide fragment of platelet factor four and method for restoring suppressed immune responses” (New York University, priority 1987, dated 1989).

B1: LA-PF4: low-affinity platelet factor 4, platelet alpha-granule constituent (protein, UniProt P02775 44-128, looked up)
Connective tissue-activating …: NLAKGKEESLDSDLYAELRCMCIKTTSGIHPKNIQSLEVIGKGTHCNQVEVIATLKDGRKICLDPDAPRIKKIVQKKLAGDESAD
modifications: Connective tissue-activating peptide III
B2: PF4: human platelet factor 4 purified from platelet releasate on heparin-agarose (protein, UniProt P02776 32-101, looked up)
Platelet factor 4: EAEEDGDLQCLCVKTTSQVRPRHITSLEVIKAGPHCPTAQLIATLKNGRKICLDLQAPLYKKIIKKLLES

Legend:
[1] = test system: Con A-induced suppression; test: Reversal of Con A-induced suppression of the splenic plaque-forming cell (PFC) response to SRBC in mice; type: in vivo; conditions: for Geom. Mean of PFC/Spleen On Day 5, Expt. 2 / Immunomodulatory activity against suppression induced by 5 μg Con A (result in words): LA-PF4 0.6 μg; for Immunomodulatory activity against suppression induced by 5 μg Con A (result in words): concentrations well below those in serum: PDGF 0.003 μg, purified PF4 0.2 to 0.6 μg per mouse; for Reversal of Con A-induced suppression (result in words): mice, PFC response to SRBC
Procedure: Concanavalin A (Miles--Yeda Ltd., Research Products, Israel) was reconstituted with saline and kept frozen. Dilutions from the frozen stock were stored at 4° C. and injected i.v. into mice one day prior to antigen, sheep erythrocytes (SRBC). SRBC were obtained from Colorado Serum Company (Denver, Colorado) washed, counted and injected intraperitoneally (i.p.) in mice. Human serum or platelet releasate was administered i.v. one to two hours before Con A i.v.
The spleens of the mice were assayed for plaque-forming cells (PFC) on day 5 after injection of sheep red blood cells. The assay employed was as follows: single-cell suspensions were prepared from individual spleens of mice. The cells were suspended in Hanks' Balanced Salt Solution (Gibco Laboratories, Grand Island, New York) and washed. Direct PFC were enumerated using the well-known method of Jerne, N.K. et al (in Cell-Bound Antibody, Amos, E. and Koprowsky, H. eds., Wistar Institute Press. pp. 109-111, […]) with the slide modification of Mishell, R.I. and Dutton, R.W. (J. Exp. Med. 126:423, 1967), both incorporated by reference. […]
When treated with thrombin or A23187 (Calcium ionophore), platelets also release alpha granule constituents other than PF4. In particular, they release LA-PF4 and PDGF. The inventors tested the ability of LA-PF4 and PDGF to overcome suppression induced by 5 μg Con A. […]
Mice were injected with 10 micrograms of Con A i.v. on day -1 (except in the positive control, which received no Con A) and on day 0 with 2.5×10^6 SRBC per mouse as in Example 2 above. On day -1, the mice also received either: Nothing (100% control), Con A only, platelet releasate (equivalent to the amount of PF4 holoprotein contained in the platelet releasate from 2×10^7 platelets or about 0.12 microgram/mouse) and various concentrations of the above-mentioned synthetic C-terminal peptide of human PF4.

[2] = test system: PFC response to SRBC; test: PFC response to SRBC in mice not injected with Con A (adjuvant effect); parameters: species or system CB6F1 mouse; conditions: mouse, in vivo
Procedure: The spleens of the mice were assayed for plaque-forming cells (PFC) on day 5 after injection of sheep red blood cells. The assay employed was as follows: single-cell suspensions were prepared from individual spleens of mice. The cells were suspended in Hanks' Balanced Salt Solution (Gibco Laboratories, Grand Island, New York) and washed. Direct PFC were enumerated using the well-known method of Jerne, N.K. et al (in Cell-Bound Antibody, Amos, E. and Koprowsky, H. eds., Wistar Institute Press. pp. 109-111, […]) with the slide modification of Mishell, R.I. and Dutton, R.W. (J. Exp. Med. 126:423, 1967), both incorporated by reference.
In order to confirm and expand this finding, 1 ml o serum, diluted 1:2, was absorbed twice for thirty minutes at 4° C. using half the number of cells for each absorption as are listed for spleen (Sp1), lymphnode (LN) and thymus (Thy) in Table 3. Each CB6F1 mouse received 0.2 ml of a 1:4 dilution of absorbed or unabsorbed serum i.v. one to two hours before administration of 2×10^6 SRBC i.v. Plaque-forming cell response was measured as in Example 2.

[3] = 5 μg Con A, n = 4, PF4 0.2 to 0.6 μg per mouse

Row | Molecule | Geom. Mean of PFC/Spleen On Day 5, Expt. 2 [1, 3] | Immunomodulatory activity against suppression induced by 5 μg Con A (result in words) [1] | Reversal of Con A-induced suppression (result in words) [1] | Enhancement of antibody (PFC) response without immunosuppressive agent (result in words) [2] | Geom. Mean of PFC/Spleen On Day 5, Expt. 3 ([1]; 5 μg Con A, n = 4, PF4 0.2 to 0.6 μg per mouse, PF4 + heparin mixture diluted 1:15, 0.2 ml per mouse)
1 | B1 | 9,440 PFC/Spleen | a small amount | no significant immunomodulating activity | – | –
2 | B2 | 22,910 PFC/Spleen | very marked activity | able to overcome Con A-induced suppression in a dose-dependent fashion | can also stimulate antibody formation even in mammals not treated with an immunosuppressive agent | 34,420 PFC/Spleen
